Measurements as given in the nanobody polyreactivity screen of Harvey et al. (2022).

Assay: yeast display, Sf9 membrane polyspecificity reagent, FACS + sequencing; frameworks hold sequencing errors
How it was run: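 A synthetic nanobody library was expressed on Saccharomyces cerevisiae BJ5465 by galactose induction for 36–48 hours. The library was stained for 1 hour at 4 °C with 10% biotinylated, detergent-solubilized Sf9 membrane reagent and enriched with streptavidin microbeads before FACS. Low and high (top ~1%) gates were set on anti-HA fluorescence for expression and streptavidin fluorescence for reagent binding, and each polyreactivity label reflects the gate of origin.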

Sequence	polyreactivity (PSR sort gate)
QVHLVESGGGLVQAGGSLRLSCAASGFTLYYYMGWYRQAPGKERELVAGISNSGSTSYADSVKGRFTISRDNAKNTVYLQMNSLKPEDTAVYYCNAYYPAWYLDRYYYWGQGTQVTVSS	high polyreactivity
QVHLVESGGGLVQAGGSLRLSCAASGGIFPGYAMGRYRKAPGKERELVAAITKRGGRTYYADSVKGRFTISRDNAKNTVYLQMNSLKPEDTAVYYCAADYYAAYHLPDQDYDYWGQGTQVTVSS	high polyreactivity
QVHLVESGGGLVQAGGSLRLSCAASGGIFYAYDMGWYRQAPGKERELVAAITWTGGTTYYADSVKGRFTISRDNAKKTVYLLMNSLKPEDTAVYYCAADDGTNSTARDKDDYYYWGQGTEVTVSS	low polyreactivity
QVHLVESGGGLVQAGGSLRLSCAASGGTDVGYAMGWYRQAPGKEMELDATITRRGGNTYYADSVKGRFTISRDNAKNTVYLQKNSLKPEDTAVYYCAARKKGSRVGYDYWGQGTQVTVSS	high polyreactivity
QVHLVESGGGLVQAGGSLRLSCAASGIIFLVYAMGWYRQAPGKEWELVAGISGSATSTNYADSVKGRFTISRDNAKNTVYLQMNSLKPEDTAVYYCAASYYGYYVPDNSKYGYWGQGTQVTVSS	low polyreactivity
QVHLVESGGGLVQAGGSLRLSCAASGIIISSYAMGWYRQAPGKERELVAAITWGGTRTNYADSVKGRFTISRDNAKNTVYLQMNSLKPEDTAVYYCAADKYLYGRLTRNFHYYYWGQGTQVTVSS	low polyreactivity
QVHLVESGGGLVQAGGSLRLSCAASGIIVYPYAMGWYRQAPGKESELVATISYRGGSTYYADSVKGRFTISRDNAKNTVYLQMNSLKPEETAVYYCAAERGYPKFGYCGQGTQVTVSS	low polyreactivity
QVHLVESGGGLVQAGGSLRLSCAASGITFISYAMGWYRQAPGKEREFVAAITRRGGSTYYADSVKGRFTISRDNAKNTVYLQMNSLKPEDTAVYYCAARVLSLYTYYYWGQGTQVTVSS	high polyreactivity
QVHLVESGGGLVQAGGSLRLSCAASGITFQRYAMGWYREAPGKERELVASISTNGGTTYYADSVKGRFTISRHNAKNTVYLQMNSLKPEDTAVYYCNAESGYVYYIRYNYWGQGTQVTVSS	high polyreactivity
QVHLVESGGGLVQAGGSLRLSCAASGITFRRYGMGWYRQAPGKERELVATITSSVGSRTYYADSVKGRFTISRDNAKNTVYLQMNSLKPEDTAVYYCAADHRVYDYEYWGQGTQVTVSS	low polyreactivity
QVHLVESGGGLVQAGGSLRLSCAASGITFYRNAMGWYRQPRGKEMELVAAITWNGGRTYYADSVKGRFTISRDNAKNTVYLQMNSLKPEDTAVYYCAADSGSRNLASYRYYSWGQGTQVTVSS	low polyreactivity
QVHLVESGGGLVQAGGSLRLSCAASGLIFVDNAMGWYRQAPGKERELVAAIDSGGSTNYADSVKGRFTISRDNEKNTVYLQMNSLKTEDTAVYYCAADWIYAPWYYQECVEYYYWGQGTQVTVSS	low polyreactivity
QVHLVESGGGLVQAGGSLRLSCAASGLTFYSNAMRWYRQAPGKERELVARISTGGSTYADSVKGRFTISRDNAKNTVYLQMNSLKPEDTGVFYCAKLPPRGIDDEYWGQATQVTVSS	low polyreactivity
QVHLVESGGGLVQAGGSLRLSCAASGLTFYWYTMGWYRQAPGKERELVAAITSGGSTSYADSVKGRFTISRDNAKNTVYLQMNSLKPEDTAVYYCAADGQVSGYDYWGQGTQVTVSS	high polyreactivity
QVHLVESGGGLVQAGGSLRLSCAASGNIFGVYAMGWYRQAPGKERELVAAISDSTYYADSVKGRFTISRDNAKNTVYLQMTSLKPEDTAVYYCAAAVLGRYSAGDGYWGQGPQVTVSS	low polyreactivity
QVHLVESGGGLVQAGGSLRLSCAASGRIFAWNSMGWYRQAPGKERELVAAITYNGGSTYYADSVKGRFTISRDNAKNTVYLQMNSLKPEDTAVYYCNKVTRSPAQGYGYWGQGTQVTVSS	high polyreactivity
QVHLVESGGGLVQAGGSLRLSCAASGRIFGPYTMGWYIQAPGKEREFVAAITRRGGSTYYADSVKGRFTISRDNAKNTVYLQMNSLKPEDTAVYSCAAGGQKRSLGYSWGQGTQVTVSS	low polyreactivity
QVHLVESGGGLVQAGGSLRLSCAASGRIFRPYAMGWYRQAPGKERELVAGLTSSGGSTYYADSVKGRFTISRDNAKNTVYLHMNSRKPEDTALYYCAAGPDYGWRRYDYWGQGTQVTVSS	low polyreactivity
QVHLVESGGGLVQAGGSLRLSCAASGRIFSRNVMGWYRQAPGKERELVAAISSSGSTYADSVKGRFTISRDNAKNTVYLQMNSLKPEDTAVYYCAAVIYLWGQGTQVTVSS	high polyreactivity
QVHLVESGGGLVQAGGSLRLSCAASGRIFYGYAMGWYRQAPGKEREFVAAITVSAGSTYYADSVKGRFTISRDNAKNTVYLQMNSLKPEDTAVYYCAGENGSKEFDYWGQGTQVTVSS	low polyreactivity
QVHLVESGGGLVQAGGSLRLSCAASGRNFGYNAMGWYRQAPRKEREFVASISSSGGLTYYSDSVKGRFTISRDNAKNTVYLQMNSLKPEDSAFYDCARQGYYLYSKYDYWGQGTQVTVSS	high polyreactivity
QVHLVESGGGLVQAGGSLRLSCAASGRTFGINAMGWYRQAPGKERELDAVISFGDGGTYYADSVKGRFTISRDNAKNTVYLQMKSLKPEDTAVYYCATDYQSTSVWGGHFVINPYDYWGQGTQVTVSS	low polyreactivity

Sequence	polyreactivity (PSR sort gate)
QVHLVESGGGLVQAGGSLRLSCAASGRTFHVYAMGWYRQAPGKEREFVAFISRRGGSTYYADSVKGRFTISRDNAKNTVYLQMNSLKPEDTAVYYCNAKYPSNYVVQDDYWGQGTQVTVSS	high polyreactivity
QVHLVESGGGLVQAGGSLRLSCAASGRTFIENAMGWYRQAPGKERELVAAIFSGGSTYYADSVKGRFTISRDNAKKTVDLQLNSLKPEDTAVYYCDARFARYDWSMYYWGQGTQVTVSS	low polyreactivity
QVHLVESGGGLVQAGGSLRLSCAASGRTFIKYAMGWYIQAPGKERELVAAISVSGGRTYYADSVKGRFTISRDKAKNTVYLQMNSLKPEDTAVYYCNKVRVGSLRGYWGQGTQVTVSS	high polyreactivity
QVHLVESGGGLVQAGGSLRLSCAASGRTFNVYAMGWYRQAPGKERELVASISSSDTTNYADSVKGRFTISRDNAKNTVYLQMNSLKPEDTAVYYCAADYTPDLLSKVDYWGQGTQVTVSS	low polyreactivity
QVHLVESGGGLVQAGGSLRLSCAASGRTFPYNAMGWYRQAPGKERELVATIDSSGTRTFYADSVKGRFTISRDNANNTVYLQMNSLKPEDTAVYYCAKGWYAYKLYGYDYWGQGTQVTVSS	low polyreactivity
QVHLVESGGGLVQAGGSLRLSCAASGRTFRLYAMAWSRQAPGKERELVARISRGGSTYYADSVKGRFTISRDNAKNTVYLLMNSLKREDTAVYYCAAEGWGLSHRYDYWGQGTQVTVSS	high polyreactivity
QVHLVESGGGLVQAGGSLRLSCAASGRTFSRYAMGWYRQAPGKERELVAGISLSGTSTYYADSVKGRFTISRDNAKNTVYLQMNSLIPVVTAVYYCATYSSYIPYGFDYWGQGTQVTVSS	high polyreactivity
QVHLVESGGGLVQAGGSLRLSCAASGRTFVYYAMGWYRQAPGKERELVAAITSVGSTYYADSVKGRFTISRDNAKNTVYLQMNSLKPEDTAVYYCAKDTWAYPYYWPYDDYWGQGTQVTVSS	low polyreactivity
QVHLVESGGGLVQAGGSLRLSCAASGRTLGGNAMGWYRQAPGKERELDAAITNSASTYADSVKGRFTISRDNAKNTVYLQMNSLKPEDTAVYYCNAPDPSDQHGDYWGQGTQVTVSS	low polyreactivity
QVHLVESGGGLVQAGGSLRLSCAASGSIFGPNAMGWYRPAPGKERELVAAINGGTGTFYADSVKGRFTISRDNAKHTVYLQMNSLKPEDTAVYYCAADYGTHYFVRYYYWGQGTEVTVSS	high polyreactivity
QVHLVESGGGLVQAGGSLRLSCAASGSIFGPYAMGWYRQAPGKERELVAAITYRGDSTYYADSVKGRFTISRDYAKNTVYLQINSLKPEDTAVYYCAADYFYANYDYWGQGTQVTVSS	high polyreactivity
QVHLVESGGGLVQAGGSLRLSCAASGSIFGRYAMGWYRQAPGKERELVANITSGDSTNYADSVKGRFTISRDNAKNTVYLQMNSLKPEDTAVYYCAAYRIGQYDYWGQGTQVTVSS	high polyreactivity
QVHLVESGGGLVQAGGSLRLSCAASGSIFGTNALGWYRQAPGKERELVAAINWSGGTTYYADSVKGRFTISRDNAKNTVYLQMNTLKPEDTAVYYCATFFFVLPPTRFDSWGQGTQVTVSS	low polyreactivity
QVHLVESGGGLVQAGGSLRLSCAASGSIFINNTMGWYRQAPGKERELVAAISITGGSTYYADSVKGRFTISRDNAKNTVYLQMNSLKPEDTAVYYCAADPLQLYDYNYWGQGTQVTVSS	low polyreactivity
QVHLVESGGGLVQAGGSLRLSCAASGSIFKPYTMRWYRQAPGTERELVAVITRRGGSTYYADSVKGRFTISRDNAKNTVYLQMNSLKPEDTAVYYCAAEYDYYGWWNDYWGQGTQVTVSS	high polyreactivity
QVHLVESGGGLVQAGGSLRLSCAASGSIFLWYTMGWYRQAPGKERELVAAISRTGGSTYYADSVKGRFTISRDNAKNTVYLQMNSLKPEDTAVYYCAASLYSITRARYDYWGQGTQVTVSS	high polyreactivity
QVHLVESGGGLVQAGGSLRLSCAASGSIFRYNVKAWYRQAPGNERQFVAANTARGGSTYYPESVKVRFTISRDYAKNTVYRQMISMKPEDTAVYYCATVSQQSRSLGIDRIYYWGQGTQVTVSS	high polyreactivity
QVHLVESGGGLVQAGGSLRLSCAASGSIFSGNTMGWYRQAPGKERELVAAISGGGSTNYADSVKGRFTISRDNAKNTVYLQMNSLKPEDTAVYYCAKDWSLGASRMDYWGQGTQVTVSS	low polyreactivity
QVHLVESGGGLVQAGGSLRLSCAASGSIFSWYAMGWYRQAPGKEWELVAAITWSGGSTYYADSVKGRFTISRDTAKNTVYLQMNSLKPEDTAVYYCAASYDIYGNYRRYDYWGQGTQVTVSS	high polyreactivity
QVHLVESGGGLVQAGGSLRLSCAASGSIFVENAMGWYRQPPGKEREFVAAITRSGGSTYYADSVKGRFTISRDNAKNTVYLQMNSLKPEDTAVYYCAARIWDEQPAAGYYWGQGTQVTVSS	low polyreactivity
QVHLVESGGGLVQAGGSLRLSCAASGSIFYINAMGWYRQPPGKDREFVARISWRSGSTSYADSVKGRFTISRDNAKNTVYLQMNSLKPEDTAVYYCNAGVFANDNGGRRDQFTWEYEYWGQGTQVTVSS	low polyreactivity
